# Molecular target: T1, biotin-labelled EZH2 protein (UniProt Q15910 1-746, limits assumed, biotin label (EZ-link NHS-PEO4-Biotinylation kit))
# T1 construct: Probe in solution (1 ug/ml) on the KDM2B peptide microarray; also called NHS-PEO4-Biotinylation-labelled EZH2 protein; recombinant protein
# Test: KDM2B peptide array probed with biotin-EZH2 1 ug/ml, SA-HRP/ECL; Remark: noise
# Method: (§1) After blocking, the polypeptide microarray was incubated with biotin-labeled target protein for hybridization, visualized with the chemical chromogenic substrate and imaged using a Chempchemi digital imager. The image of colored polypeptide microarray was analyzed for the optical density of the colored points. Particularly, the optical density of each colored point was calculated using the optical density of the respective surrounding background as a reference for background correction. The highest optical density value of the colored point on membrane was set to 100%, and the optical density value of the remaining colored points was converted into percentages relative to the highest value. The points with an optical density percentage of more than 30% on the polypeptide membrane and also with an optical density percentage of less than 30% on the negative membrane were defined as positive colored points.
# (§2) For the hybridization experiment, a solution of NHS-PEO4-Biotinylation-labelled EZH2 protein (1 μg/ml) was used for the hybridization of the polypeptide microarray. Streptavidin-HRP was used to amplify the reaction signal according to the experimental procedure and conditions described above, and the time of color development was 5 minutes.
# 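Note: 100% is the highest background-corrected spot optical density on the membrane.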
# T1 sequence (Q15910 whole entry): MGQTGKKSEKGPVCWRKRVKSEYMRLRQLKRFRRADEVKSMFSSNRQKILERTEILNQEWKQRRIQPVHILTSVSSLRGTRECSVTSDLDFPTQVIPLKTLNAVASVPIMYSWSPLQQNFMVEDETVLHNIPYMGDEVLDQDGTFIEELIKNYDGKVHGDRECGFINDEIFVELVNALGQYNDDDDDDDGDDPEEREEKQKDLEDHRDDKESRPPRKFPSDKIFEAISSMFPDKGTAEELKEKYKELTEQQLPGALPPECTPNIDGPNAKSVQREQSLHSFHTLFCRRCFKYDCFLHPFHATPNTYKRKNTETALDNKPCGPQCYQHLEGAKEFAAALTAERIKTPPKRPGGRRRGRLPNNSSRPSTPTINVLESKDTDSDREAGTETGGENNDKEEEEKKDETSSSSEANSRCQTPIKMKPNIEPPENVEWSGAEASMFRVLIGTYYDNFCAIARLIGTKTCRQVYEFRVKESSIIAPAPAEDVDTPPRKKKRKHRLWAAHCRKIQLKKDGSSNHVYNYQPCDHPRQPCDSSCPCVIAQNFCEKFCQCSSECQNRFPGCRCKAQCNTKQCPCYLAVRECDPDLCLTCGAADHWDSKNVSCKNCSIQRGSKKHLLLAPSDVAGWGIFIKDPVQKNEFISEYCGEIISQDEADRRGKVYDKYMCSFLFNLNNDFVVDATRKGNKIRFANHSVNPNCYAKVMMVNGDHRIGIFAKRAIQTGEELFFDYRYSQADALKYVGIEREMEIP
row,Binder,Intensity (%)
1,EEAPRRRSDEHSKKV [peptide 155],0
2,ESDHSRSSSPTAGPS [peptide 182],0.36
3,ETPEAQRDKLYNVIS [peptide 33],0
4,AMEGKDFNYEYVQRE [peptide 18],0
5,DRTRVQPKFRYPFYY [peptide 70],0.02
6,GKTGKQKRGPGFKYA [peptide 146],0.01
7,KRASSLQTSPGSSSH [peptide 164],0.34
8,KCNHAGKTGKQKRGP [peptide 145],0
9,TQEYQRESMLIDAPR [peptide 77],0
10,DGSTSPTSTPSEDQE [peptide 89],0
11,EMCWYVLERYVYCVT [peptide 73],0.19
12,RGFSLEEKLRSQLYQ [peptide 14],0.07
13,SEDQEALGKKPKAPA [peptide 91],0
14,FVRYYETPEAQRDKL [peptide 32],0
15,PTSTPSEDQEALGKK [peptide 90],0.19
16,RSSSPTAGPSTEGAE [peptide 183],0
17,PTLHNLALYEEWVLS [peptide 54],0
18,EFESATQRPIDRQRY [peptide 8],0
19,MGGSAEDHPPRKRHA [peptide 2],0
20,PPKTRESDHSRSSSP [peptide 181],0.3
21,ELSGRKRASSLQTSP [peptide 163],0
22,ALGKKPKAPALRFLK [peptide 92],0
23,EIVSVRGFSLEEKLR [peptide 13],0.05
24,GGTSVWYHVFRGGKI [peptide 50],0
25,NAIAEMKYPKVKKYC [peptide 44],0
26,LQTSPGSSSHLSPRP [peptide 165],0
27,KDMKKFGGPGRMKQS [peptide 127],0

# Now from value to binder:
row,Intensity (%),Binder
1,0,VQFGQVEEKLLQKLS [peptide 266]
2,0,TAGPSTEGAEGPEEK [peptide 184]
3,0.39,RVISRPPPSVSPPKC [peptide 205]
4,0,NRPGQMDNRSKLRNI [peptide 241]
5,0,IQMERHVIRPPPISP [peptide 208]
6,0,IIRRQPVSLDLSWTN [peptide 225]
7,0.05,CEQFIAEMSVSVQFG [peptide 263]
8,0.32,HVIRPPPISPPPDSL [peptide 209]
9,0,KSITPLMLSGIIRRQ [peptide 223]
10,0,ISKKQLSWLINRLPG [peptide 228]
11,0,LSWTNISKKQLSWLI [peptide 227]
12,0.18,LNGTPRELRHQLGPS [peptide 201]
13,0.23,VTDQCLSFFKRCGNI [peptide 257]
14,0,PPISPPPDSLPLDDG [peptide 210]
15,0.64,RELRHQLGPSLRSPP [peptide 202]
16,0,TDASLRLIIRHMPLL [peptide 246]
17,0.56,TWNRWCCDKRLWTRI [peptide 219]
18,0.72,LSFFKRCGNICHIDL [peptide 258]
19,0,LSWLINRLPGLRDLV [peptide 229]
20,0,VTKEGCEQFIAEMSV [peptide 262]
21,0,RPPGICERPHRFSKG [peptide 198]

# Molecular target: T1, biotin-labelled EZH2 protein
# Test: KDM2B peptide array probed with biotin-EZH2 1 ug/ml, SA-HRP/ECL;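 note: Background-corrected optical density of each spot on the membrane, given as percent of the brightest spot (100%), color developed for 5 minutes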
# Method: as §1, §2
row,Intensity (%),Binder
1,0,RTLSNESEESVKSTT [peptide 95]
2,0,PKAPALRFLKRTLSN [peptide 93]
3,0,LRFLKRTLSNESEES [peptide 94]
4,0,VKSTTLAVDYPKTPT [peptide 97]
